Patent US7037492

Molecular target: IL-1 receptors (on articular chondrocytes)
Assay: cell-based or functional assay

inhibition of gelatinase production by IL-1 treated chondrocytes, 5 U/ml IL-1, first culture's conditioned medium: 100%
inhibition of gelatinase production by IL-1 treated chondrocytes, 5 U/ml IL-1, second culture's conditioned medium: 41%
inhibition of gelatinase production by IL-1 treated chondrocytes, 10 U/ml IL-1, first culture's conditioned medium: 38%
inhibition of gelatinase production by IL-1 treated chondrocytes, 10 U/ml IL-1, second culture's conditioned medium: 18%
Substance: human interleukin-1 receptor antagonist protein (IRAP) (from UniProt P18510 26-177) (ligand)
